What was measured:
[1] = molecular target: T1, Plasma-derived FVIII light chain (UniProt P00451 1668-2351); assay: solid-phase competition: scFv KM33 (0-30 nM) against FVIII light chain (25 nM) binding to immobilised LRP cluster II (FIG. 5)
T1 construct: domain: light chain (a3-A3-C1-C2); Prepared from plasma as in the cited literature; Human by context (the peptides are said to cover human FVIII regions); Residue numbers count on mature FVIII, without the signal peptide; also called LCh; 80-kDa light chain (a3-A3-C1-C2)
T1 sequence (looked up): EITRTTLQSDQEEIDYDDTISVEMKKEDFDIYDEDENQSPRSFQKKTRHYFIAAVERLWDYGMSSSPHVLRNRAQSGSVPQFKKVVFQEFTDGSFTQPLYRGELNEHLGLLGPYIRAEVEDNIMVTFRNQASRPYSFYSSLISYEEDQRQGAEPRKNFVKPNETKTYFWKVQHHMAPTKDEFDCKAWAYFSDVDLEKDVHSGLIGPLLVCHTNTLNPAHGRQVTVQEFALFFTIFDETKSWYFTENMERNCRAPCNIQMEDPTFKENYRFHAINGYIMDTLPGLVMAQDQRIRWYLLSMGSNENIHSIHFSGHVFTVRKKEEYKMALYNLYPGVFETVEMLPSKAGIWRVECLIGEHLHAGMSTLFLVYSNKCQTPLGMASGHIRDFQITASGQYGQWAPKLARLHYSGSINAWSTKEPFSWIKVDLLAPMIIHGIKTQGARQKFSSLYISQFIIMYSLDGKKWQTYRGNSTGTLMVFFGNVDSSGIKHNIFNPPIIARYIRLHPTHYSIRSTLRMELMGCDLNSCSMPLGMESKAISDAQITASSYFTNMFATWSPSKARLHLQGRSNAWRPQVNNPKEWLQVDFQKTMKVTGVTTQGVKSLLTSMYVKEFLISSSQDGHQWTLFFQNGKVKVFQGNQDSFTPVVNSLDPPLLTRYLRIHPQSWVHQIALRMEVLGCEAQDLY
Procedure: (§1) FIG. 5. […] Data represent the mean ±S.D. of three experiments.
(§2) Solid-phase Binding Assays—Recombinant LRP clusters II or IV (1 pmol/well) were adsorbed onto microtiter wells in 50 mM NaHCO₃ (pH 9.8) in a volume of 50 μl for 16 h at 4° C. Wells were blocked with 2% (w/v) HSA, 150 mM NaCl, 5 mM CaCl₂, and 50 mM Tris (pH 7.4) in a volume of 200 μl for 1 h at 37° C. […] Bound ligand was detected by incubating with peroxidase-conjugated monoclonal antibody CLB-CAg 12 in the same buffer for 15 min at 37° C. […] Residual FVIII binding was detected as described above.

[2] = molecular target: T1, Plasma-derived FVIII light chain; assay: solid-phase competition assay: FVIII light chain (25 nM) on immobilised LRP cluster II (1 pmol/well) in the presence of scFv KM33 (0-30 nM); detection with peroxidase-conjugated CLB-CAg 12
Procedure: as §1, §2

B1: scFv KM33 (scFv)
scFv: EVQLVESGGGVVQPGRSLRLSCVDSGLTFSSYGMHWVRQAPGAGLEWVAVISYDGNDKYYADSVKGRFAISRDNAKNTLYLQMNSLTIEDTAVYYCAKDLIESNIAEAFWGQGTLVTVSSGGGGSGGGGSGGGGSDIQMTQSPSSLSASVGDTVTIACRASRDIRNDLAWYQQKPGKAPKLLIYATSRLQSGVPSRFSGSGSFTDFTLTINSLQPDDSATYYCLQDSDYPLTFGGGTKVDIKRAAAEQKLISEEDLNGAAHHHHHH
notes: Expressed in E. coli TG1
[1]
  Ki: ~5 nM
[2]
  IC50 (read off the curve): ~7 nM

From patent US20080219983A1 (TRIMESTER CUSHION, published 2008)
